Assay results reported in IntAct's records for PubMed 19959993.

B1: Synaptonemal complex protein ZIP1 (Saccharomyces cerevisiae), P31111 (parent)
chain: MSNFFRDSSMGFKPRPNIFAKLRVRDVDSDSSANTVVENSSNCLDVGSSIEGDDTFKKPHKTSTEQELITSMSLSQRNHGYSDDMEIGSPKKTTSTDQYNRILKNDVAAIENDTDEDFEITEVREVSEGVAKETKESHGDPNDSETTLKDSKMHEYTMTNGKAPLHTSINNSSTSSNDVLLEAFTNTQRICSNLKQELQKQQQDNAKLKVRLQSYASNSDKINEKVGKYKSCLETLQERIATLTSHKNNQETKLKDLRQNHQLYQRRISGFKTSIENLNKTINDLGKNKKEADAELMKKGKEIEYLKRELDDCSGQLSEEKIKNSSLIQEMGKNREEMIKSIENFFSEDKAHHLLQFNKFEERVHDLFEKKLQKHFDVAKDTLNVGLRNTTVELSSNTETMLKQQYEDIKENLEQKMSSSKDEMAKTINELSVTQKGLIMGVQEELLTSSGNIQTALVSEMNNTRQELLDDASQTAKNYASLENLVKAYKAEIVQSNEYEERIKHLESERSTLSSQKNQIISSLGTKEAQYEDLVKKLEAKNIEISQISGKEQSLTEKNENLSNELKKVQDQLEKLNNLNITTKSNYENKISSQNEIVKALVSENDTLKQRIQQLVEIKENEQKDHTTKLEAFQKNNEQLQKLNVEVVQLKAHELELEEQNRHLKNCLEKKETGVEESLSDVKTLKQQVIVLKSEKQDITAEKLELQDNLESLEEVTKNLQQKVQSQKRELEQKIKELEEIKNHKRNEPSKKGTQNFTKPSDSPKKNATTSNLFPNNSAAIHSPMKKCPKVDHISKSRINSSKETSKFNDEFDLSSSSNDDLELTNPSPIQIKPVRGKIKKGSNCMKPPISSRKKLLLVEDEDQSLKISKKRRRK
partner: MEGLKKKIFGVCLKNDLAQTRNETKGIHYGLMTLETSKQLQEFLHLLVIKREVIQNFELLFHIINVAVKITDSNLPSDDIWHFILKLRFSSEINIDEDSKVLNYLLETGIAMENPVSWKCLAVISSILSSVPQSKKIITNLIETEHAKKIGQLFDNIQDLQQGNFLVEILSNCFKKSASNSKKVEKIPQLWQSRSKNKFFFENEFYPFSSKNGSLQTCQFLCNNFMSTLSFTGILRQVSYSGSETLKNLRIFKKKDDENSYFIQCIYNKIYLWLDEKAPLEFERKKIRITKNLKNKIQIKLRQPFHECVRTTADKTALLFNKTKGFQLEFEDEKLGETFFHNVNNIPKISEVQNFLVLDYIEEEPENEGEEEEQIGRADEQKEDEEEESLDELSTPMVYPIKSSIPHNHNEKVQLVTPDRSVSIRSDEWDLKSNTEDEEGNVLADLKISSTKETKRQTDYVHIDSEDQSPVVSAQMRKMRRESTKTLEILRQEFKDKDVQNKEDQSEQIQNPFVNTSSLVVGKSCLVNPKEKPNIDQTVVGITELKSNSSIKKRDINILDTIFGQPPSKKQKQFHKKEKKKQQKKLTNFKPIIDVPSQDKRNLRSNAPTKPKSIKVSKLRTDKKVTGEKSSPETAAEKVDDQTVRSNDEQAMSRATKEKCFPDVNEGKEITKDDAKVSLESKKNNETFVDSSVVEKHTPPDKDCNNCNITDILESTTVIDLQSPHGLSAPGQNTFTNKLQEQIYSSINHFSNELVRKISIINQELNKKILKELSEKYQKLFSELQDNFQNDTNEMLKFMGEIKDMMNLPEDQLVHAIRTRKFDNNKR
B2: Protein RED1 (Saccharomyces cerevisiae), P14291 (parent)
chain: B1 partner

Variants of: B1
Conditions: with red1_yeast RED1, P14291

| Variant | effect of a mutation on the interaction |
| --- | --- |
| D863R | decreasing interaction |
| Q864R | decreasing interaction |
| E862R | decreasing interaction |

Variants of: B2
Conditions: with smt3_yeast SMT3, Q12306
Sequence of smt3_yeast SMT3, Q12306 (Q12306 whole entry): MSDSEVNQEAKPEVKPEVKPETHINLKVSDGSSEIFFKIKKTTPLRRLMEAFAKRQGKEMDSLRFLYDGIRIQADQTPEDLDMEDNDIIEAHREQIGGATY

| Variant | effect of a mutation on the interaction |
| --- | --- |
| I758R | decreasing interaction |

Variants of: B2
Conditions: with smt3_yeast SMT3, Q12306
Remark: another data set of the same source

| Variant | effect of a mutation on the interaction |
| --- | --- |
| S715R | decreasing interaction |
| T717R | decreasing interaction |
